Laboratory results as given in publication PMC7746762.

Molecular target: FliC-NikRC flagellin variant (flagellin with its D3 domain replaced by the C-terminal Ni-binding domain of NikR) (S. typhimurium | E. coli) (UniProt P0A6Z6)
Assay: dynamic light scattering; purified FliC-NikRC in solution; conditions not shown (Fig. S1 in the SI)

FliC-NikRC flagellin variant (flagellin with its D3 domain replaced by the C-terminal Ni-binding domain of NikR) (from UniProt P0A6Z6 50-133)
stoichiometry N: 4
